Tests used:
[1] = biological target: T1, W1G2 peptide (Agrobacterium fabrum, UniProt Q8UD95, E37S/P35C/R36P); type: binding; design: His6 (N); TEV protease cleavage site (N); made in house; host or cells: BL21 Escherichia coli; conditions: SPR
Experimental: (§1) With regard to surface plasmon resonance (SPR), SPR data was collected by loading a streptavidin chip with the target biotinylated peptides in each of the four channels, and then flowing the protein over the chip at each concentration for 180 seconds before washing with 50 mM Tris-HCl, pH 8.0, 300 mM NaCl, 1 mM DTT, 5% glycerol buffer for 180 seconds. […] The four channels were used such that the negative control peptide (A1G2) was in channel 1, F1G2 in channel 2, W1G2 in channel 3, and Y1G2 in channel 4. The negative control peptide channel was used as a baseline for subtraction, which accommodates both any non-specific binding and refractive index change. A steady state response at each concentration was plotted and fit to calculate the KD, while the resonance units vs. time was used to calculate a koff for each mutant protein with each peptide.
(§2) Regarding characterization of the ClpS mutant protein binding kinetics, for peptide sequencing via some recently proposed methods reagents can bind peptides affixed to a surface. Two A. tumefaciens ClpS2 protein variants (V2, described above, and V1) were expressed and purified from E. coli. […] The binding properties of each variant were analyzed using surface plasmon resonance (SPR).

[2] = thermal stability by intrinsic protein fluorescence; type: physicochemical; conditions: compared with wild-type and V1
Experimental: The thermal stability of the variants was assessed. Each variant was loaded in 3×PBS at approximately 1 mg/mL concentration in capillary tubes and the intrinsic protein fluorescence recorded at 330 nm and 350 nm while heating the sample over a 35-95° C. at a rate of […].

[3] = system: Y1G2 peptide; assay: SPR, peptide on streptavidin chip, ClpS2 variant protein in solution; type: binding
Experimental: as §1, §2

[4] = system: F1G2 peptide; assay: as above; type: binding; conditions: for specificity between N-terminal Phe and Trp, in words: from SPR binding data
Experimental: as §1, §2

[5] = system: Tyr NAA peptide; assay: yeast/peptide colorimetric pull-down assay; type: binding; conditions: yeast-displayed protein
Experimental: (§3) Incubation and wash steps were repeated.

[6] = system: Leu NAA peptide; assay: yeast/peptide colorimetric pull-down assay; type: binding; conditions: yeast-displayed protein
Experimental: as §3

[7] = system: F1G2 peptide; assay: yeast/peptide colorimetric pull-down assay; type: binding; conditions: yeast-displayed protein
Experimental: as §3

[8] = biological target: T1, W1G2 peptide; assay: flow cytometry of yeast displaying ClpS proteins; type: binding; design: factor Xa cleavage site (N); expressed in transfected cells; host or cells: Saccharomyces cerevisiae EBY100, pCTCON2 library clone; conditions: yeast-displayed protein
Experimental: After two rounds of MACs selection, the library was sorted by flow cytometry. […] A typical reaction contained 100 μL of cells (containing approximately 10^6 cells), 10 μL of peptide at a concentration between 10 nM to 10 μM, and 25 μL of a master mix containing 2 μL of an anti-myc antibody, 4 μL of the SAPE (streptavidin, R-phycoerythrin conjugate—1 mg/mL) and 19 μL of PBS/BSA for each sample.
Cells were washed with PBS/BSA and sorted using a FACS Aria cytometer and collected in 1 mL of SD-CAA media. The number of cells that bound the peptide improved with each round and were sorted with sequentially lower concentrations of peptide to increase the stringency of the selection. […]
With regard to directed evolution of ClpS, random mutagenesis and screening was used to select proteins with higher affinity binding to the target NAA. In subsequent steps, specific residues were determined from initial screens with a targeted mutagenesis step. […] Using FACS, we assessed the affinity of each mutant for the N-terminal amino acid on the target peptide based on which quadrant the fluorescent signal fell into as shown in FIG. 15. […] If there is also a high fluorescence signal along the x-axis (streptavidin-PE) then the peptide is presumably bound to the protein variant, and the signal will appear in Q2. […]

[9] = system: W1G2 peptide; type: binding
Experimental: as §1, §2

[10] = relative specificity factor, ratio of binding affinities

B1: A. tumefaciens ClpS2 [Cys34 Pro35 Ser36] (protein, listed as Escherichia coli)
chain: SDSPVDLKPKPKVKPKLERPKLYKVMLLNDDYTCPSFVTVVLKAVFRMSEDTGRRVMMTAHRFGSAVVVVCERDIAETKAKEATDLGKEAGFPLMFTTEPEE
notes: ClpS2 variant, native residues 34-36 ProArgGlu mutated to CysProSer
- decrease in KD for W1G2 peptide compared to wild-type [1]: 6.6 fold
- dissociation rate slowed over wild-type, Trp [1]: 51.3 fold
- thermal stability [2]: not as thermally stable
- KOFF Tyr ([3]; from SPR dissociation curves): 0.05 s⁻¹
- Selectivity for Tyr, Tyr/Phe [3, 10]: 9.82
- Selectivity for Tyr, Tyr/Trp [3, 10]: 12.91
- Selectivity for Tyr, Tyr/Tyr [3, 10]: 1.0
- Kd ([3]; steady state, peptide on surface, 0 to 50 μM protein, read-out: KD Tyr): 36.1 ± 4.4 µM
- dissociation rate slowed over wild-type, Phe ([4]; SPR): 27.9 fold
- specificity between N-terminal Phe and Trp, in words [4]: more specific for Phe over Trp than the wild-type protein
- specificity between N-terminal Phe and Trp, in words ([4]; listed as CysProSer variant): selectively bound to Trp over Phe
- KOFF Phe ([4]; from SPR dissociation curves): 0.03 s⁻¹
- affinity for N-terminal Phe relative to wild-type, in words ([4]; in vitro surface binding assays): greater affinity
- Selectivity for Phe, Phe/Phe [4, 10]: 1.0
- Selectivity for Phe, Phe/Trp [4, 10]: 1.32
- Selectivity for Phe, Phe/Tyr [4, 10]: 0.10
- Kd ([4]; steady state, peptide on surface, 0 to 50 μM protein, read-out: KD Phe): 3.7 ± 0.3 µM
- binding affinity to Tyr compared to wild-type [5]: increased binding affinity
- binding to Leu [6]: increased affinity
- affinity for F1G2 peptide compared to wild-type [7]: increased binding affinity
- affinity for W1G2 peptide compared to wild-type [8]: improved affinity
- KOFF Trp ([9]; from SPR dissociation curves): 0.03 s⁻¹
- affinity for N-terminal Trp relative to wild-type, in words ([9]; in vitro surface binding assays / SPR): greater affinity
- Selectivity for Trp, Trp/Phe [9, 10]: 0.76
- Selectivity for Trp, Trp/Trp [9, 10]: 1.0
- Selectivity for Trp, Trp/Tyr [9, 10]: 0.08
- Kd ([9]; steady state, peptide on surface, 0 to 50 μM protein, read-out: KD Trp): 2.8 ± 0.3 µM
